Measurements as given in US20210253725A1 (BIONTECH, published 2021).
Residue numbers refer to the chain shown, from its start. Numbers in names are those of the source. Each block holds one binder with its values, some of them ahead of it.

Key:
[1] = biological target: T1, CD27 protein (His-tagged, Sino Biological Inc. 10039-H08B1) (human, UniProt P26842 20-192); assay: ELISA on coated His-tagged CD27
T1 construct: bought; coated onto ELISA plates; also called human CD27; recombinant protein; not shown: His tag
T1 sequence (looked up): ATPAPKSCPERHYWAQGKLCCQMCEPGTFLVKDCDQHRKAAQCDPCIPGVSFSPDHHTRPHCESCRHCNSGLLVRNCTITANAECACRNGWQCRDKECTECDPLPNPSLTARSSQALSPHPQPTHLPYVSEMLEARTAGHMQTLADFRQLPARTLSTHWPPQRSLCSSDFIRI

[2] = biological target: T2, CD27 expressed on the cell surface (HT1080_CD27 cells) (human, UniProt P26842 20-260); assay: cellular binding assay, HT1080_CD27 cells
T2 construct: whole, on cells; also called K562_CD27
T2 sequence (looked up): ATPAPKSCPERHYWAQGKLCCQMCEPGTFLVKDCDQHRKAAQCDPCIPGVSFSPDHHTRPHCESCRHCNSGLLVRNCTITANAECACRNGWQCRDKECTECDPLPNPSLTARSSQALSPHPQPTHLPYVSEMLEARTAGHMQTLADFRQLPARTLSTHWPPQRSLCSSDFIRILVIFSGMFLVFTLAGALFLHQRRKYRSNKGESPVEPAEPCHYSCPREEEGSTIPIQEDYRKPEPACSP

[3] = biological target: T2, CD27 expressed on the cell surface …; assay: cell-based or functional assay
Also: test concentration or dose not given here.

B1: P018.S.07.A.E03 (antibody, V domains shown)
VH: QSLEESGGRLVTPGTPLTLTCTVSGIDLSSYAMGWVRQAPGKGLELIGLIYASDRTHYATWAKGRFTISKSSTTVDLKATSLTTEDTATYFCGRYGRGSGGYYYGMDLWGPGTLVTVSS
VL: DVVMTQTPASVEAAVGGTVTIKCQASQSGDNYLSWYQQKSGQPPKLLIYLASTLASGVPSRFRGSRSGTEYTLTISDLESADAATYYCQNYCAGSGVCVGVAFGGGTEVVVK
notes: V regions on human Ig constant parts; also called AB27_125
ELISA [abs. corr.] [1]: 3.28 abs. corr.
Cellular binding assay [RFU] [2]: 227 RFU
IL-8, cross-linked by F(ab')2 fragment [abs. corr.] [3]: 1.51 abs. corr.
IL-8 [abs. corr.] [3]: 0.123 abs. corr.

B2: P018.S.05.A.F02 (antibody, V domains shown)
VH: QSVEESGGRLVTPGTPLTLTCTVSGFSLNNYGITWVRQAPGKGLEYIGYINYGGIAYYASWVNGRFTISKTSTTVDLKMTSLTAADTATYFCARGYGYYSAGNLWGQGTLVTVSS
VL: AQVLTQTPSPVSAAVGGTVTINCQASQSVYDNNYLSWYQQKPGQPPKRLIYDASSLASGVPSRFSGSGSGTQFTLTISGVQSDDAATYYCAGEYSCLSDDCIAFGGGTEVVVK
notes: V regions on human Ig constant parts; also called AB27_91
ELISA [abs. corr.] [1]: 3.29 abs. corr.
Cellular binding assay [RFU] [2]: 472 RFU
IL-8, cross-linked by F(ab')2 fragment [abs. corr.] [3]: 1.91 abs. corr.
IL-8 [abs. corr.] [3]: 0.526 abs. corr.

B4: P018.S.06.A.D04 (antibody, V domains shown)
VH: QSLEESGGRLVKPDETLTLTCTVSGFDLSSYAVVWVRQAPGKGLEWIGYIYGGSGSTWYASWAKGRFTISKTSSTTVDLKMTSLTTEDTATYFCARAYDSGYIGNSFYAFDPWGPGTLVTVSS
VL: DIVMTQTPASVSAAVGGTVTIKCQASQTISSTLAWYQQKPGQPPKLLIYSASTLASGVSSRFKGSGSGPEFTLTISDLESADGGTYTCAGYGTVGVTAFGGGTEVVVR
notes: V regions on human Ig constant parts; also called AB27_103
ELISA [abs. corr.] [1]: 3.28 abs. corr.
Cellular binding assay [RFU] [2]: 394 RFU
IL-8, cross-linked by F(ab')2 fragment [abs. corr.] [3]: 1.06 abs. corr.
IL-8 [abs. corr.] [3]: 0.444 abs. corr.

B6: P018.S.07.A.C02 (antibody, V domains shown)
VH: QSVEESGGRLVTPGTPLTLTCTASGFSLSSYHMCWVRQAPGKGLEWIGIIYAGSGNTWYASWAKGRFTISKTSTTVDLKITSPTTEDTATYFCARQPGGGASDTQLDLWGQGTLVTVSS
VL: AAVLTQTPSPVSAAVGGTVTINCQSSQSVFDNNQLSWFQHKPGQSPKLLIYRASTLASGVPSRFKGSGSGTQFTLTISDLESDDAATYYCLGGYSSSSDTVFGGGTEVVVE
notes: V regions on human Ig constant parts; also called AB27_119
ELISA [abs. corr.] [1]: 3.13 abs. corr.
Cellular binding assay [RFU] [2]: 380 RFU
IL-8, cross-linked by F(ab')2 fragment [abs. corr.] [3]: 2.02 abs. corr.
IL-8 [abs. corr.] [3]: 0.735 abs. corr.

B7: P018.S.04.A.A05 (antibody, V domains shown)
VH: QSLEESGGRLVTPGTPLTLTCTASGFTISSYEMGWVRQAPGEGLEYIGWIASGGSTFYASWAKGRFTISRTSTTVDLTITDLRPSDTGTYFCARGYVEFKLWGPGTLVTVSS
VL: DIVMTQTPASVSESVGGTVTIKCQASQSIGSYLSWYQQKPGQPPKVLIYRASTLESGVPSRFEGSGSGTQFTLTISDLESADAATYYCQGYHSTSGYVAFGGGTELVVK
notes: V regions on human Ig constant parts; also called AB27_65
ELISA [abs. corr.] [1]: 3.29 abs. corr.
Cellular binding assay [RFU] [2]: 206 RFU
IL-8, cross-linked by F(ab')2 fragment [abs. corr.] [3]: 2.24 abs. corr.
IL-8 [abs. corr.] [3]: 1.67 abs. corr.

B11: P018.S.10.A.E06 (antibody, V domains shown)
VH: QSLEESGGRLVTPGTPLTLTCTVSGIDLSDYAMAWVRQAPGKGLEYIGFINIGGISSVANWAIGRFTISKSSTTVDLKITSPTTEDTATYFCAREGYTTGGGGPYYGMDLWGPGTLVTVSS
VL: DIVMTQTPASVSEPMGGTVTIKCQASQSIHSWLSWYQQKPGQPPKRLIYTASTLASGVPSRFKGSGSGTEYTLTISDLESADAATYYCQRNSYSDFNNYVFGGGTEVVVK
notes: V regions on human Ig constant parts; also called AB27_178
ELISA [abs. corr.] [1]: 3.28 abs. corr.
Cellular binding assay [RFU] [2]: 215 RFU
IL-8, cross-linked by F(ab')2 fragment [abs. corr.] [3]: 2.06 abs. corr.
IL-8 [abs. corr.] [3]: 0.262 abs. corr.

Next, values leading:

ELISA [abs. corr.] [1]: 3.29 abs. corr.
Cellular binding assay [RFU] [2]: 356 RFU
IL-8, cross-linked by F(ab')2 fragment [abs. corr.] [3]: 1.19 abs. corr.
IL-8 [abs. corr.] [3]: 0.2 abs. corr.
B3: P018.S.03.A.E04 (antibody, V domains shown)
VH: QEQLKESGGGLVTPGGTLTLTCTVSGIDLSSYAISWVRQAPGKGLEWIGYIYVGSTTTWYASWVKGRSTISKTSSTTVDLKMTSLTTEDTATYFCARAYDSGYIGNSFYIFHPWGPGTLVTVSS
VL: B4 VL with A14T, T32R, P69T, G84A, T87Y, T93G, V94L, V96I, R108K
notes: V regions on human Ig constant parts; also called AB27_52

ELISA [abs. corr.] [1]: 3.28 abs. corr.
Cellular binding assay [RFU] [2]: 295 RFU
IL-8, cross-linked by F(ab')2 fragment [abs. corr.] [3]: 1.15 abs. corr.
IL-8 [abs. corr.] [3]: 0.264 abs. corr.
B5: P018.S.01.A.E04 (antibody, V domains shown)
VH: QEQLKESGGGLVTPGGTLTLTCTASGSDISNYGVSWVRQAPGKGLEWIGFINADGGGTWYASWVKGRFTISRTSTTVELKMTSLTTEHTATYFCATYGGGGGHNLWGPGTLVTVSS
VL: AQVLTQTPSSVSAAVGGTVTINCQSSQSVYDNNALAWYQQKPGQPPKLLLYSASRLASGVPSRFKGSGSGTQFTLTISDLESDDAATYYCAAYYGSGDIFAFGGGTEVVVE
notes: V regions on human Ig constant parts; also called AB27_16

ELISA [abs. corr.] [1]: 3.29 abs. corr.
Cellular binding assay [RFU] [2]: 336 RFU
IL-8, cross-linked by F(ab')2 fragment [abs. corr.] [3]: 1.04 abs. corr.
IL-8 [abs. corr.] [3]: 0.408 abs. corr.
B8: P018.S.07.A.C06 (antibody, V domains shown)
VH: QSVEESGGRLVTPGTPLTLTCTVSGFSLNHYHMCWVRQAPGKGLEYIGRIDNSGYIVYASWAKGRFTISKTSTTVDLKITSPTTADTATYFCGKYYSGGSYDLWGQGTLVTVSS
VL: AQVLTQTASSVSAAVGGTVTISCQSSQSVWNNNWLAWYQQKPGQPPKLLIYETSKLASGVPSRFKGSGSGTQFTLTISGVQSDDAATYYCQGEFSCSSDDCNAFGGGTEVVVK
notes: V regions on human Ig constant parts; also called AB27_121

ELISA [abs. corr.] [1]: 3.3 abs. corr.
Cellular binding assay [RFU] [2]: 369 RFU
IL-8, cross-linked by F(ab')2 fragment [abs. corr.] [3]: 1.79 abs. corr.
IL-8 [abs. corr.] [3]: 0.325 abs. corr.
B9: P018.S.01.A.C06 (antibody, V domains shown)
VH: QSVEESGGRLVTPGTPLTLTCTVSGIDLNNYVMGWVRQAPGKGLEWIGIINTAGSTYYANWAKGRFTISKTSTTVDLKITSPTTEDTATYFCARDSSYYIGYYFNLWGPGTLVTVSS
VL: QIVMTQTPASVEVAVGGTVTIKCQASQSIGSNLAWYQQKPGQPPKLLIYDASDLESGVPSRFKGSGSGAQFTLTISDLESADAATYYCQQGYSATTNVDNAFGGGTEVVVK
notes: V regions on human Ig constant parts; also called AB27_10

ELISA [abs. corr.] [1]: 3.28 abs. corr.
Cellular binding assay [RFU] [2]: 400 RFU
IL-8, cross-linked by F(ab')2 fragment [abs. corr.] [3]: 2.11 abs. corr.
IL-8 [abs. corr.] [3]: 0.187 abs. corr.
B10: P018.S.09.A.D05 (antibody, V domains shown)
VH: QSLEESGGRLVTPGGSLTLTCTVSGIDLSSYAMDWVRQAPGKGLEWIGVIGAGGSTYYASWANGRFTISKTSTTVDLKISSPTTEDTATYFCARDIGGDYSSRYYFSLWGPGTLVTVSS
VL: DIVMTQTPASVEAAVGGTVTIKCQASQSTSTALAWYQQKPGQRPKLLIYDSSKLASGVPSRFSGSGSGTEFTLTISGVQSDDAASYYCQQGYNINNVAFGGGTEVVVK
notes: V regions on human Ig constant parts; also called AB27_152

ELISA [abs. corr.] [1]: 3.53 abs. corr.
Cellular binding assay [RFU] [2]: 319 RFU
IL-8, cross-linked by F(ab')2 fragment [abs. corr.] [3]: 2.25 abs. corr.
IL-8 [abs. corr.] [3]: 0.464 abs. corr.
B12: P018.S.09.A.C03 (antibody, V domains shown)
VH: QSVEESGGRLVTPGTPLTLTCTVSGFSLSSYGMIWVRQAPGKGLEWIGWISSNDNKYYARWAKGRFTISKTSTTVDLKMTSLTTEDTATYFCVRNGVYNTGNYFDLWGQGTLVTVSS
VL: AQVLTQTPSSVSAAVGGTVTINCQASQSLYNNKNLAWYQQKPGQPPKFLIYTASSLASGVSSRFKGSGSGTQFTLTISDVQSDDAATYYCQGEFDCDSDDCFAFGGGTEVVVK
notes: V regions on human Ig constant parts; also called AB27_148
